The term Kd denotes the equilibrium constant for the complex coming apart.

Numbering of substitutions follows the chain as printed.

Sequences and labels used below:
B1: 40617p1.2.A1 (scFv, V domains shown)
VH: EVQLLESGGGLVQPGGSLRLSCAASGFTFSSYWMTWVRQAPGKGLEWVSAISSYGGQYTYYADSVKGRFTISRDNSKDTLYLHMDSLRAEDTAVYYCAKDWDDGMDVWGQGTTVTVSS
VL: EIVMTQSPAVLSVSPGERATLSCRASQSVNIKLAWYQQKPGQAPRLLIYGASTRAAGIPDRFSGSGSGTDFTLTISSLQSDDFAVYYCQQYYDLPPYSFGGGTKVEIK
notes: tested as scFv-Fc supernatant
B2: 40617p1.2.H8 (scFv, V domains shown)
VH: B1 VH with Q57N, T59M, H83Q, D85N
VL: B1 VL with V10T, E17D, I31S, G50A, T53S, A56T, S77R, Q79E, S80P, D81E
notes: tested as scFv-Fc supernatant
B3: 40617p1.2.H1 (scFv, V domains shown)
VH: B1 VH with S30T, S31N, Q57N, T59M, K77E, D78N, H83Q, D85N
VL: B1 VL with S28T, N30G, I31S, A51V, D81E
notes: tested as scFv-Fc supernatant
B4: 40769p1.1.A4 (scFv, V domains shown)
VH: EVQLLESGGGLVQPGGSLRLSCTASGITFSRFNMFWVRQAPGKGLEFVASIRDDGSWTYYADSVKGRFTISRDNSKNTLYLQMNSLRAEDTAVYYCAKDYNSKDFIYHYVMDVWGQGTTVTVSS
VL: QSVLTQPPSASGTPGQRVTISCSGRNSNIGNNVVNWYQQLPGTAPKLLIYKDDQRPSGVPDRFSGSKSGTSASLAISGLQSEDEADYYCSTWDDSLNGWVFGGGTKLTVL
notes: tested as scFv-Fc supernatant
B5: 40769p1.2.B10 (scFv, V domains shown)
VH: EVQLLESGGGLVQPGGSLRLSCPASGFDFSSYWMTWVRQAPGKGLEWVSTITDSGGRAWYADSVRGRFTISRDNSKNTLYLQMNSLRAEDTAVYYCARDTPKTYYYYAMDVWGQGTTVTV
VL: QSALTQPPSASGTPGQRVTISCSGSSSNIQYSYVSWYQQLPGTAPKLLIYNNVQRPSGVPDRFSGSKSGTSASLAISGLQSEDEADYYCATWDESLLGLWVFGGGTKLTVL
notes: tested as scFv-Fc supernatant
B6: 40769p1.1.B8 (scFv, V domains shown)
VH: EVQLLESGGGLVQPGGSLRLSCAASGFTFEDYAMSWVRQAPGKGLEWVSVISSKGGSTSNADSVKGRFTISRDNSKNTLYLQMNSLRAEDTAVYYCAKGMERQYYSYNAMDVWGQGTTVTVSS
VL: QSVLTQPPSASGTPGQRVTISCSGSNSNIDVDYVYWYQQLPGTAPRLLIYKDDQRPSGVPDRFSGSKSGTSASLAISGLQSEDEADYYCATWDDNLNSWLFGGGTKLTVL
B7: 40617p1.1.F1 (scFv, V domains shown)
VH: KVQLLESGGGLVQPGGSLRLSCAASGFTFSSYSMTWVRQAPGKGLEWVSRIYNGGSTYYADSVKGRFTISRDNSKNTLYLQMNSLRAEDTAVYYCARDTYAIDVWGQGTTVTVSS
VL: EIVLTQSPATLSVSPGERATLSCRASQGIAGNLAWYQQKPGQAPRLLIYAASNRATGIPARFSGSGSGTDFTLTISSLQSEDFAVYYCQHYYDWPPYSFGGGTKVEIK
B8: 40769p1.1.G12 (scFv, V domains shown)
VH: EVQLLESGGGLVQPGGSLRLSCAASGFTFDDYVMSWVRQAPGKGLEWVSEISESDGSNKYYADSVKGRFIISRDNSKNTLYLQMNSLRAEDTAVYYCARLEPEKYYGMDVWGQGTTVTVSS
VL: B4 VL with R25S, V33L, N35S, K51R, D52H, Q54H, S90A, W99R, V100A
B9: 40769p1.1.G5 (scFv, V domains shown)
VH: EVQLLESGGGFVQPGGSLRLSCAASGFNFNNAWMNWVRQAPGKGLEWVGIINGDGTNTYYADSVKGRFTISRDNSKNTLYLQMSSLRAEDTAIYYCARDNKLNDYYYAMDVWGQGTTVTV
VL: QSVLTQPSSASGTPGQRVTISCSGGSSNIHANYVYWYQQLPGTAPKLLIYRNSQRPSGVPDRFSGSKSGTSASLAISGLQSEDEADYYCGTWDNILNVWVFGGGTKLTVL
B10: 40769p1.1.E2 (scFv, V domains shown)
VH: EVLLLESGGGLVQPGGSLRLSCAASGFTFSDYWMSWVRQAPGKGLEWVSTISISAGIIYYADSVKGRFTISRDNSKNTLYLQMNSLRAEDTAVYYCAKDNWNDYYGMDVWGQGTTVTVSS
VL: QSVLTQPPSASGTPGQRVTMSCSGNNQNIRDNYVYWYQQVPGTAPKLLIYKDDQRPSGVPDRFSGSKSGTSASLAISGLQSEDEADYYCATWDGSLKARVFGGGTKLTVL
B11: 40769p1.1.G10 (scFv, V domains shown)
VH: B10 VH with L3Q, S35N, I53S, S54G, A55G, G56S, I57M, Y60H, A88P
VL: B10 VL with T19N, M20I, N25S, N26S, Q27S, D31Y, K67E, K97N
B12: 40769p1.1.H1 (scFv, V domains shown)
VH: B10 VH with L3Q, S35N, I53S, S54G, A55G, G56S, I57M, Y60H, A88P
VL: B10 VL with T19N, M20I, N25S, N26S, Q27S, D31Y, G78E, K97N
B13: 40769p1.1.A2 (scFv, V domains shown)
VH: EVQLLESGGGLVQPGGSLRLSCAASGFLFDDYGMSWVRQAPGKGLEWVSAISYKGGSTYYADSVKGRFTISRDNSKNTLYLQMSSLRAEDTAVYYCAKDHKWNYYGMDVWGQGTTVTVSS
VL: QSVLTQPPSASGTPGQRVTISCSGSTSNIGNDNYVSWYQQLPGTAPRLLIYKDDQRPSGVPDRFSGSKSGTSASLAISGLQSEDEADYYCGTWDDRLNAWVFGGGTKLTVL
B14: 40769p1.2.E3 (scFv, V domains shown)
VH: EVQLLESGGDLVQPGGSLRLSCGASGFTFSDHYMSWVRQAPGKGLEWVADISARGSNTWYADSVKGRFTISRDNSENTLYLQMNSLRAEDTAVYYCAKNWNYNYGMDVWGQGTTVTVSS
VL: QSVLTQAPSASGTPGQRVTISCSGSSIQNNYVSWYQQLPGTAPKLLIYRNFERPSGVPDRFSASKSGTSASLAISGLQSEDEADYYCASWDDSLNWVFGGGTKLTVL

The first test concerns the target T1, His-tagged human CD38 (ACRO Biosystems cat #CD8-H5224) (human, UniProt P28907 43-300).
T1 construct: bought recombinant protein with His tag
In words: ELISA, coated His-CD38.
Regarding B1, the “ELISA 1 ug/ml” value came to 1.57.

With B2, the “ELISA 1 ug/ml” value stood at 1.77.

Regarding B3, the “ELISA 1 ug/ml” value was found to be 1.81.

As for B4, the “ELISA 1 ug/ml” value is 1.67.

As to B5, the “ELISA 1 ug/ml” value is 1.7.

In another test the target is T2, His-tagged cynomolgus monkey CD38 (ACRO Biosystems cat #CD8-05223) (cynomolgus monkey, UniProt Q5VAN0 43-301).
T2 construct: bought recombinant protein with His tag
In words: ELISA, coated His-CD38. A general note: An ELISA detects its analyte on a solid surface through an enzyme-linked reagent.
As to B1, the “ELISA 1 ug/ml” value stood at 1.67.

With B2, the “ELISA 1 ug/ml” value was found to be 2.17.

On to B3, for which the “ELISA 1 ug/ml” value came out at 1.83.

Take B4: the “ELISA 1 ug/ml” value amounted to 1.78.

Take B5: the “ELISA 1 ug/ml” value was 1.68.

The next test concerns the target T3, His-tagged mouse CD38 (ACRO Biosystems #CD8-M5223) (mouse, UniProt P56528 45-304).
T3 construct: bought recombinant protein with His tag; also called Murine
T3 sequence (looked up): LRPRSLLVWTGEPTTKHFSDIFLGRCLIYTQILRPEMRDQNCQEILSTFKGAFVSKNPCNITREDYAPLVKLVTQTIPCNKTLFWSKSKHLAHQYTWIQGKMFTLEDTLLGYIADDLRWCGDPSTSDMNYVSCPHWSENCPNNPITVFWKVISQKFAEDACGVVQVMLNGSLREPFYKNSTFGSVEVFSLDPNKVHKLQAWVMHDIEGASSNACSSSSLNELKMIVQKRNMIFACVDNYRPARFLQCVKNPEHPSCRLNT
Put plainly: ELISA, coated His-CD38.
Consider B1, for which the “ELISA 1 ug/ml” value is 1.13.

As for B2, the “ELISA 1 ug/ml” value worked out at 1.5.

Turning to B3, the “ELISA 1 ug/ml” value was determined as 1.05.

On to B4, for which the “ELISA 1 ug/ml” value came to 0.049.

B5: the “ELISA 1 ug/ml” value worked out at 1.14.

Another test addresses T4, His-tagged human CD38 (ACRO Biosystems CD8-H5224) (human, UniProt P28907 43-300).
T4 construct: bought protein; used for ELISA coating and as SPR analyte; not shown: His tag
In words: SPR (second run), His-tagged CD38.
With B6, the Kd was 0.25 nM.

On to B7, for which the dissociation constant (Kd) was determined as 119 nM.

Consider B8, for which binding was put at a Kd of 2.81 nM.

B9 gave a Kd of 7.56 nM.

B10: the Kd was 6.99 nM.

B11: the dissociation constant (Kd) came to 1.71 nM.

B12 yielded a Kd of 58.5 nM.

Molecule B13 returned a Kd of 0.82 nM.

Turning to B14, the equilibrium dissociation constant (Kd) was determined as 6.74 nM.

The next test concerns the target T5, His-tagged cynomolgus monkey CD38 (ACRO Biosystems, CD8-05223 [sic]) (cynomolgus monkey, UniProt Q5VAN0 43-301).
T5 construct: bought protein; used for ELISA coating and as SPR analyte; not shown: His tag
Put plainly: SPR (second run), His-tagged CD38.
As for B6, the equilibrium dissociation constant (Kd) turned out to be 3.29 nM.

B7 registered a Kd of 786 nM.

B8: the affinity, expressed as Kd, was 15.3 nM.

Molecule B9 registered a Kd of 28.1 nM.

Take B10: the Kd was 8.31 nM.

Consider B11, for which the dissociation constant (Kd) was 72.1 nM.

B12 came in with a Kd of 59.9 nM.

Regarding B13, the affinity, expressed as Kd, was 0.72 nM.

With B14, binding was put at a Kd of 4.9 nM.

The next test addresses T1, His-tagged human CD38 (ACRO Biosystems …). Put plainly: SPR, captured scFv-Fc, His-CD38 analyte.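 Further: SPR on a Carterra LSA, scFv-Fc captured by anti-human Fc on HC30M chip, His-tagged CD38 (human, mouse, cynomolgus) flowed as analyte in eight 1:2 steps from 400 nM.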
As for B1, the Kd came out at 82.9 nM.

B2 registered a dissociation constant Kd of 60.7 nM.

Molecule B3 showed an equilibrium dissociation constant (Kd) of 12.5 nM.

Regarding B4, the affinity, expressed as Kd, was 54400 nM.

B5 returned a Kd of 1.43 nM.

A further test concerns the target T2, His-tagged cynomolgus monkey CD38 (ACRO …). In words: SPR, captured scFv-Fc, His-CD38 analyte. (In SPR one partner is held on a chip, and binding of the other changes the refractive index at the surface.)
The molecule B1 came in with an equilibrium dissociation constant (Kd) of 77.9 nM.

B2 returned a dissociation constant (Kd) of 39.3 nM.

On to B3, for which the equilibrium dissociation constant (Kd) worked out at 30.6 nM.

Consider B4, for which binding was characterised by a dissociation constant (Kd) of 0.106 nM.

Regarding B5, the Kd is 18 nM.

The next test addresses T3, His-tagged mouse CD38 (ACRO Biosystems …). In words: SPR, captured scFv-Fc, His-CD38 analyte.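 Further: SPR on a Carterra LSA, scFv-Fc captured by anti-human Fc on HC30M chip, His-tagged CD38 (human, mouse, cynomolgus) flowed as analyte in eight 1:2 steps from 400 nM.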
Consider B1, for which the Kd was determined as 108 nM.

For B2, the Kd amounted to 154 nM.

In turn, B3 had a dissociation constant (Kd) of 39.4 nM.

The molecule B4 yielded a Kd of 675000 nM.

B5 came in with a Kd of 56300 nM.

In the next test the target is T6, human CD38 on transiently transfected Expi293 cells (Origene #SC321273) (human, UniProt P28907 1-300).
T6 construct: whole, on cells; also called Human (FACs)
Put plainly: flow cytometry, transfected Expi293 cells.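 Further: antibody binding to Expi293 cells transiently expressing human or murine CD38, antibodies applied at 10 ug/ml for 60 min on ice, read by flow cytometry as percent gated cells.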
As to B1, the “FACs 10 ug/ml (percent gated)” value was determined as 78.8%.

For B2, the “FACs 10 ug/ml (percent gated)” value amounted to 67.8%.

Turning to B3, the “FACs 10 ug/ml (percent gated)” value is 69.5%.

As for B4, the “FACs 10 ug/ml (percent gated)” value came out at 69.9%.

In the case of B5, the “FACs 10 ug/ml (percent gated)” value came to 86.3%.

For another test, the target named is T7, murine CD38 on transiently transfected Expi293 cells (Origene MC208001) (murine, UniProt P56528 1-304).
T7 construct: whole, on cells; also called Murine (FACs)
T7 sequence (looked up): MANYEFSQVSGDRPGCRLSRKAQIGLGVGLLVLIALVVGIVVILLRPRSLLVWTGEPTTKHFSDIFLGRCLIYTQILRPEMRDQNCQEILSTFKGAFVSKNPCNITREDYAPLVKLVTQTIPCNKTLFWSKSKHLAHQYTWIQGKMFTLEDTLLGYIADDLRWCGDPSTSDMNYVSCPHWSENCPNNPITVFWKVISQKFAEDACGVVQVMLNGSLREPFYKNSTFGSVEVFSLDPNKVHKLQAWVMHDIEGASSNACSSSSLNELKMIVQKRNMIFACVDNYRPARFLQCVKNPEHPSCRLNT
In words: flow cytometry, transfected Expi293 cells.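 Further: antibody binding to Expi293 cells transiently expressing human or murine CD38, antibodies applied at 10 ug/ml for 60 min on ice, read by flow cytometry as percent gated cells.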 For orientation: A flow cytometer gives signals particle by particle.
Take B1: the “FACs 10 ug/ml (percent gated)” value worked out at 67.9%.

In the case of B2, the “FACs 10 ug/ml (percent gated)” value was determined as 68.4%.

With B3, the “FACs 10 ug/ml (percent gated)” value amounted to 68.5%.

Regarding B4, the “FACs 10 ug/ml (percent gated)” value was found to be 3.09%.

Consider B5, for which the “FACs 10 ug/ml (percent gated)” value amounted to 4.81%.

The values above are taken from patent US20220306762A1 (CRYSTAL BIOSCIENCE, published 2022).
